B1: Phage-3701 (peptide)
peptide: EVLLCKPSWMCDGF
notes: not shown: pIII filament protein of the bacteriophage
B2: Phage-3709 (peptide)
peptide: EHIRCQPSWMCWGF
modifications: cysteine pairing not given here; also: displayed on phage as pIII fusion
notes: as for B1
B3: Phage-3703 (peptide)
peptide: VPRMCIPHWMCEGI
notes: as for B1
B4: Phage-3704 (peptide)
peptide: GDVRCVPSWMCEGY
notes: as for B1
B5: Phage-3707 (peptide)
peptide: VDHMCKPMWMCNGF
notes: as for B1
B6: Phage-3705 (peptide)
peptide: MSMSCVPLWMCSGF
notes: as for B1
B7: Phage-3706 (peptide)
peptide: EIPLCRPEWMCTGL
notes: as for B1
B8: Phage-3708 (peptide)
peptide: TDRVCTPAWMCQGL
notes: as for B1
B9: Phage-3702 (peptide)
peptide: PGALCVPFWMCQGF
notes: as for B1

Where no end group is shown, it is not given here.

For the first assay, the target named is T1, PSMA Fab (006 PSMA Fab) (biotinylated (site not stated)).
T1 construct: also called Anti-PSMA Fab
The experiment in a line: clonal phage ELISA on biotinylated PSMA Fab captured on neutravidin plates, anti-M13 HRP detection.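 Note: crude clonal phage supernatants tested, before phage were added, wells were pretreated with PSMA antigen in blocking buffer or with blocking buffer only.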
In the case of ISIKCEPQWMCDGL [Phage-3671 (peptide-180 library clone)], the “Phage binding ELISA signal, Anti-PSMA Fab” value is 1.48.
Still for that read-out and setting: with AAKYCEPSWMCYGF [Phage-3672 (peptide-180 library clone)] the figure was 1.48.

The target of a further assay is T2, PSMA Fab (006 PSMA Fab).
T2 construct: also called Anti-PSMA Fab
The assay is described as above.
Description: (§1) Clonal phage were harvested as crude supernatants and screened via standard ELISAs. […] Prior to the addition of clonal phage. wells were incubated with blocking buffer and PSMA antigen or blocking buffer alone. Without washing or aspirating, clonal phage supernatants were then added to the wells and incubated for a short time. Wells were then washed followed by detection of bound phage using a horse radish conjugated anti-M13 antibody.
On to MIKMCKPYWMCEAM [Phage-3679], for which the “Phage binding ELISA signal, Anti-PSMA Fab” value worked out at 1.48.
On the same count and under the same terms, for GTMKCEPAWMCEGF [Phage-3674] the value was 1.48.
Turning to PHVVCIPEWMCAGF [Phage-3681], the “Phage binding ELISA signal, Anti-PSMA Fab” value came to 1.47.
On the same count and under the same terms, for LVKHCVPDWMCSGF [Phage-3677] the value was 1.48; for ADMRCVPDWMCHGF [Phage-3686], 1.47.
Same read-out and setting: for DAMMCKPTWMCDGF [Phage-3675] the value was 1.48.
The same measure, in the same setting: for STSWCSPPWMCEGF [Phage-3683] the value was 1.47.
With LGKICSPAWMCSGF [Phage-3673], the “Phage binding ELISA signal, Anti-PSMA Fab” value turned out to be 1.48.
Still for that read-out and setting: with ERPACVPMWMCTGL [Phage-3684] the figure was 1.47; with YTVQCVPTWMCAGL [Phage-3680], 1.47.
In the case of DERMCRPAWMCEGL [Phage-3682], the “Phage binding ELISA signal, Anti-PSMA Fab” value was 1.47.
The same measure, in the same setting: with VIPKCEPKWMCHSL [Phage-3678] the figure was 1.48; with PEARCIPMWMCERL [Phage-3676], 1.48.
EMSLCIPAWMCSVF [Phage-3685]: the “Phage binding ELISA signal, Anti-PSMA Fab” value turned out to be 1.47.

Another assay concerns the target T2, PSMA Fab (006 PSMA Fab). The experiment in a line: clonal phage ELISA on captured PSMA Fab pre-incubated with PSMA antigen as competitor.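 Note: crude clonal phage supernatants added to wells without washing away the PSMA competitor, bound phage detected by HRP-conjugated anti-M13 antibody, reference wells received blocking buffer only.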
Description: as §1
For the molecule MIKMCKPYWMCEAM [Phage-3679], the “Phage binding ELISA signal, Anti-PSMA Fab with PSMA antigen” value stood at 0.0794.
Same read-out and setting: for GTMKCEPAWMCEGF [Phage-3674] the value was 0.106; for PHVVCIPEWMCAGF [Phage-3681], 0.068.
Still for that read-out and setting: for LVKHCVPDWMCSGF [Phage-3677] the value was 0.101.
The same measure, in the same setting: with ADMRCVPDWMCHGF [Phage-3686] the figure was 0.0874; with DAMMCKPTWMCDGF [Phage-3675], 0.0662; with STSWCSPPWMCEGF [Phage-3683], 0.0631.
For the molecule LGKICSPAWMCSGF [Phage-3673], the “Phage binding ELISA signal, Anti-PSMA Fab with PSMA antigen” value stood at 0.0608.
On the same count and under the same terms, for ERPACVPMWMCTGL [Phage-3684] the value was 0.0929; for YTVQCVPTWMCAGL [Phage-3680], 0.0609.
Consider DERMCRPAWMCEGL [Phage-3682], for which the “Phage binding ELISA signal, Anti-PSMA Fab with PSMA antigen” value worked out at 0.102.
Still for that read-out and setting: for VIPKCEPKWMCHSL [Phage-3678] the value was 0.0649.
Take PEARCIPMWMCERL [Phage-3676]: the “Phage binding ELISA signal, Anti-PSMA Fab with PSMA antigen” value is 0.0885.
On the same count and under the same terms, for EMSLCIPAWMCSVF [Phage-3685] the value was 0.0677.

The target in another assay is T3, Anti-PSMA Fab.
T3 construct: also called 006 PSMA Fab
Description: clonal phage ELISA; biotinylated PSMA Fab on neutravidin plate, blocking buffer alone; anti-M13 HRP detection.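 Note: crude clonal phage supernatants added without washing to wells pretreated with blocking buffer with or without PSMA antigen, short incubation, then washed before detecting bound phage.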
Description: as §1
In the case of SEHYCVPNWMCAGL [Phage-3693], the “Phage binding ELISA signal, Anti-PSMA Fab” value was found to be 1.46.
On the same count and under the same terms, for GLPYCVPSWMCDGF [Phage-3700] the value was 1.44; for MIAMCKPPWMCIGL [Phage-3687], 1.47; for DVPYCIPSWMCHGF [Phage-3698], 1.45.
The same measure, in the same setting: with NEKLCVPTWMCDGL [Phage-3697] the figure was 1.45.
Still for that read-out and setting: for YLHECRPEWMCVGF [Phage-3699] the value was 1.45; for DHMMCVPPWMCDGI [Phage-3692], 1.46; for TVPRCVPAWMCNWS [Phage-3694], 1.45.
For the molecule ALSMCVPQWMCQGF [Phage-3690], the “Phage binding ELISA signal, Anti-PSMA Fab” value came to 1.46.
Same read-out and setting: for VNERCIPDWMCVGF [Phage-3691] the value was 1.46.
On the same count and under the same terms, for VVVQCVPKWMCYGF [Phage-3688] the value was 1.47; for TMQMCKPAWMCSQL [Phage-3696], 1.45.
Take LPHACKPSWMCQGF [Phage-3689]: the “Phage binding ELISA signal, Anti-PSMA Fab” value was 1.47.
For the molecule SQHSCIPSWMCNGF [Phage-3695], the “Phage binding ELISA signal, Anti-PSMA Fab” value came to 1.45.

In the next assay the target is T4, PSMA Fab (006 PSMA Fab) (biotinylated (site not stated)).
T4 construct: Biotinylated PSMA Fab captured on neutravidin coated plates in the phage ELISA; also called Anti-PSMA Fab; anti-PSMA Fab
Description: clonal phage supernatant on biotinylated PSMA Fab captured on neutravidin plate, anti-M13-HRP detection.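 Note: before phage were added, wells received PSMA antigen in blocking buffer or blocking buffer alone, with no wash in between, followed by a short phage incubation.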
As to B1, the “Phage binding ELISA signal, Anti-PSMA Fab” value worked out at 1.44.
Same read-out and setting: for B2 the value was 1.43; for B3, 1.43; for B4, 1.43.
Still for that read-out and setting: for B5 the value was 1.43; for B6, 1.43.
The same measure, in the same setting: with B7 the figure was 1.43; with B8, 1.43.
With B9, the “Phage binding ELISA signal, Anti-PSMA Fab” value came to 1.44.

The next assay addresses T1, PSMA Fab (006 PSMA Fab). Description: clonal phage ELISA on captured PSMA Fab, wells pre-incubated with PSMA antigen as competitor.
Description: as §1
Regarding ISIKCEPQWMCDGL [Phage-3671 (peptide-180 library clone)], the “Phage binding ELISA signal, Anti-PSMA Fab in presence of PSMA” value stood at 0.307.
On the same count and under the same terms, for AAKYCEPSWMCYGF [Phage-3672 (peptide-180 library clone)] the value was 0.105.

A further assay concerns the target T4, PSMA Fab (006 PSMA Fab). The experiment in a line: clonal phage supernatant on captured PSMA Fab pre-incubated with the competitor PSMA antigen, anti-M13-HRP detection.
Description: as §1
In the case of B1, the “Phage binding ELISA signal, Anti-PSMA Fab in presence of PSMA antigen” value was determined as 0.185.
As for B2, the “Phage binding ELISA signal, Anti-PSMA Fab in presence of PSMA antigen” value is 0.128.
On the same count and under the same terms, for B3 the value was 0.0731; for B4, 0.0816; for B5, 0.0673.
Same read-out and setting: for B6 the value was 0.0698; for B7, 0.126.
On the same count and under the same terms, for B8 the value was 0.0772; for B9, 0.108.

The target in a further assay is T3, Anti-PSMA Fab. The experiment in a line: clonal phage ELISA; biotinylated PSMA Fab on neutravidin plate, wells pre-incubated with PSMA antigen as competitor; anti-M13 HRP detection.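 Note: crude clonal phage supernatants added to antigen-treated wells without a wash, incubated briefly, then bound phage read out via horse radish–conjugated anti-M13 antibody.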
Description: as §1
For SEHYCVPNWMCAGL [Phage-3693], the “Phage binding ELISA signal, Anti-PSMA Fab in presence of PSMA” value worked out at 0.0995.
For the molecule GLPYCVPSWMCDGF [Phage-3700], the “Phage binding ELISA signal, Anti-PSMA Fab in presence of PSMA” value came out at 0.0858.
Same read-out and setting: for MIAMCKPPWMCIGL [Phage-3687] the value was 0.0954; for DVPYCIPSWMCHGF [Phage-3698], 0.249; for NEKLCVPTWMCDGL [Phage-3697], 0.0612.
Same read-out and setting: with YLHECRPEWMCVGF [Phage-3699] the figure was 0.153; with DHMMCVPPWMCDGI [Phage-3692], 0.119; with TVPRCVPAWMCNWS [Phage-3694], 0.0917.
Still for that read-out and setting: for ALSMCVPQWMCQGF [Phage-3690] the value was 0.0597; for VNERCIPDWMCVGF [Phage-3691], 0.0649.
On to VVVQCVPKWMCYGF [Phage-3688], for which the “Phage binding ELISA signal, Anti-PSMA Fab in presence of PSMA” value was 0.0764.
On the same count and under the same terms, for TMQMCKPAWMCSQL [Phage-3696] the value was 0.0765; for LPHACKPSWMCQGF [Phage-3689], 0.0636; for SQHSCIPSWMCNGF [Phage-3695], 0.154.

The values are drawn from patent publication US20260242478A1 (published 2026).
